Source: publication PMC3266974 (Journal of Medicinal Chemistry, 2012)

Target: T1, bovine pancreas CPA (Bos taurus, UniProt P00730)
T1 sequence (P00730 111-419): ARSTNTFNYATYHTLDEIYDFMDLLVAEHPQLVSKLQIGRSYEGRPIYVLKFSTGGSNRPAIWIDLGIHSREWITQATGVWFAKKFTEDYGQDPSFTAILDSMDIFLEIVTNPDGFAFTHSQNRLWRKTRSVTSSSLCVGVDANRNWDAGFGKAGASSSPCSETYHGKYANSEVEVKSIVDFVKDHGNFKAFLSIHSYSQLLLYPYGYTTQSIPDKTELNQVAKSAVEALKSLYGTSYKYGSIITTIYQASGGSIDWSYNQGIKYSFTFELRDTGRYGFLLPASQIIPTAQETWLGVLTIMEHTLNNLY
Assay: Inhibition of CPA, colorimetric substrate N-
Type: biochemical
Details: tested in duplicate, na = not active at 30 μM

IC50: 4.5 ± 0.9 µM
Substance: Peptide 6: linear version of namalide (IFKF; not fully specified; Linear (uncyclized) namalide)
